Experiment [1] has as its target T1, hPCSK9 160-181 synthetic peptide (human).
T1 construct: Numbered on complete human PCSK9 including the twenty-eight amino acid signal peptide
T1 peptide: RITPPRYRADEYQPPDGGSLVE
Nature of the experiment: binding kinetics to synthetic peptide, reference intact human PCSK9.

The target of experiment [2] is Mouse PCSK9 (mouse, UniProt Q80W65 35-694, limits assumed). Nature of the experiment: SPR, 25 C, n=3. On the technique in general: In SPR one partner is held on a chip, and binding of the other changes the refractive index at the surface.
Experiment [3] addresses Rat PCSK9 (rat, UniProt P59996 31-691, limits assumed). In words: SPR, 25 C, n=2.
The target of experiment [4] is T2, Recombinant full length PCSK9, C-terminal HIS-tagged (HEK 293 stable cell line) (human, UniProt Q8NBP7 31-692).
T2 construct: also called C-terminal HIS-tagged recombinant human PCSK9; not shown: C-terminal HIS tag
Nature of the experiment: AlphaLISA, inhibition of PCSK9 (1 nM) binding to FLAG-tagged LDLR extracellular domain (1 nM). On the technique in general: Bead proximity is the source of the signal in Alpha formats.

Experiment [5] concerns the target T1, hPCSK9 160-181 synthetic peptide. Nature of the experiment: binding kinetics to synthetic peptide (method not named in Example 3).
In experiment [6] the target is T3, hPCSK9 166-181 synthetic peptide (human).
T3 peptide: YRADEYQPPDGGSLVE
Described as above.

In experiment [7] the target is T4, hPCSK9 163-174 synthetic peptide (human).
T4 peptide: PPRYRADEYQPP
The description is as above.

In experiment [8] the target is T5, mature hPCSK9 C-term His (human, UniProt Q8NBP7 29-692).
T5 construct: also called intact human PCSK9; intact PCSK9
In words: binding kinetics (method not named in Example 3).

Experiment [9] concerns the target Human PCSK9 (human, UniProt Q8NBP7 31-692). In words: SPR, 37 C, physiological buffer, n=6, Avg ± SD.
Experiment [10] addresses Cyno PCSK9 (cynomolgus monkey). Nature of the experiment: SPR, 37 C, physiological buffer, n=4, Avg ± SD.

A value given as a limit tells only on which side of the number the result lay.

As usually defined, the IC50 is the point on the concentration scale where inhibition reaches its midpoint. Broadly, the Kd is the concentration at which binding is half-saturated. The low end stands for tighter binding, the high end for weaker binding. For orientation: koff means the first-order rate constant of dissociation. Low values mean a long-lived complex, high ones a short-lived complex. In general, kon refers to the second-order rate constant of association. Higher therefore signals faster complex formation.

Chain of Human PCSK9 (Q8NBP7 31-692 limits assumed): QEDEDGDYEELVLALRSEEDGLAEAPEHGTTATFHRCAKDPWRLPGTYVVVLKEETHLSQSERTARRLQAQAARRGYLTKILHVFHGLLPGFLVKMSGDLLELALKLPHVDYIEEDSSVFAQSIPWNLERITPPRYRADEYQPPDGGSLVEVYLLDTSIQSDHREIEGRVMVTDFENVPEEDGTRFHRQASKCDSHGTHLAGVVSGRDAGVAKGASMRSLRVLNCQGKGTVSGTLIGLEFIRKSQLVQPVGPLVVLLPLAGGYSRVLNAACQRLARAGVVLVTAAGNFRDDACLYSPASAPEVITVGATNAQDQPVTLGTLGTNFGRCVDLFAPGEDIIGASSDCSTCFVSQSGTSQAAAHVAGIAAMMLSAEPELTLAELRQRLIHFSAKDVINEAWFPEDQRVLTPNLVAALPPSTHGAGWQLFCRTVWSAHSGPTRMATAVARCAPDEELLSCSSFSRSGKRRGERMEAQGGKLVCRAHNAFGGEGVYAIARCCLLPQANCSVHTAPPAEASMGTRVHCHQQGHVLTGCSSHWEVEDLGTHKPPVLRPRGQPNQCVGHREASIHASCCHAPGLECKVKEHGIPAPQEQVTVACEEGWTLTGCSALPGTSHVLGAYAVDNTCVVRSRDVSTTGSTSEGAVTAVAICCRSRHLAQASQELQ
T5 sequence (Q8NBP7 other isoform, or with tags, fused parts or gaps limits assumed): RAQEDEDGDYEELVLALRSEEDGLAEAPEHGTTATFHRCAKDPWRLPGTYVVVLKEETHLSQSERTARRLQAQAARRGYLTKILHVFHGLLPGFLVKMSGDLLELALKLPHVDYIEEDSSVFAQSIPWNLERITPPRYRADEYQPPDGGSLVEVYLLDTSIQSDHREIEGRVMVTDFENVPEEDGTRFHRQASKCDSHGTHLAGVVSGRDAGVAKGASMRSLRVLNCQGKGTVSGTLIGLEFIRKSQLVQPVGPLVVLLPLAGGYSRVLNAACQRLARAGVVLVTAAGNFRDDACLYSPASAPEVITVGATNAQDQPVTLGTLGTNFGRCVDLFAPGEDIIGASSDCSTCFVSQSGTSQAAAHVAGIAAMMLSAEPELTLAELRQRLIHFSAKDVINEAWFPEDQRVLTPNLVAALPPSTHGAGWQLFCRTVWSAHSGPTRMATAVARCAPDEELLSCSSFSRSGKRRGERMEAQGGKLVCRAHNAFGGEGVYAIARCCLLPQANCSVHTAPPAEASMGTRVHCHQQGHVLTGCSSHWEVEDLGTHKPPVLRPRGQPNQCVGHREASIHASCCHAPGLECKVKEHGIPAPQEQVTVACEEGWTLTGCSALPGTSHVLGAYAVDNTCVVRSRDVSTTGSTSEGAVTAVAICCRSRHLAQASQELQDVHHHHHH
T2 sequence (Q8NBP7 31-692 limits assumed): as the sequence (Q8NBP7 31-692 limits assumed) above
Chain of Mouse PCSK9 (Q80W65 35-694 limits assumed): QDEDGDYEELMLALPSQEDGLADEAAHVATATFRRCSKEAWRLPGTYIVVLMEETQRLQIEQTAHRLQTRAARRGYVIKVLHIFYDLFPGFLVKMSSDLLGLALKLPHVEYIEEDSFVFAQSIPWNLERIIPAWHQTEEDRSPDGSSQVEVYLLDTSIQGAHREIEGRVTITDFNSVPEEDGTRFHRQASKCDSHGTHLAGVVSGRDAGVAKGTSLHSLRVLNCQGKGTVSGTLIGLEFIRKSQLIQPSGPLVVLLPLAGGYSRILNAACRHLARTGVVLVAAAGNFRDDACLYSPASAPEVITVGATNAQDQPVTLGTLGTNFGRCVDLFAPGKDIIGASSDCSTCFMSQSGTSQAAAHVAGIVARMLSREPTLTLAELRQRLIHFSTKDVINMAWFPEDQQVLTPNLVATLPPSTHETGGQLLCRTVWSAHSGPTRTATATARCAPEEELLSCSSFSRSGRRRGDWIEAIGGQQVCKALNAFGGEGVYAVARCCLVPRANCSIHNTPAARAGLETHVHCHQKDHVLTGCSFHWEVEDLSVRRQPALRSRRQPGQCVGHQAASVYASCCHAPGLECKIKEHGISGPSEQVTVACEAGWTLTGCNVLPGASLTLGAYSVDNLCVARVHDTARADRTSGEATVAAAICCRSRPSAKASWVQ
Chain of Rat PCSK9 (P59996 31-691 limits assumed): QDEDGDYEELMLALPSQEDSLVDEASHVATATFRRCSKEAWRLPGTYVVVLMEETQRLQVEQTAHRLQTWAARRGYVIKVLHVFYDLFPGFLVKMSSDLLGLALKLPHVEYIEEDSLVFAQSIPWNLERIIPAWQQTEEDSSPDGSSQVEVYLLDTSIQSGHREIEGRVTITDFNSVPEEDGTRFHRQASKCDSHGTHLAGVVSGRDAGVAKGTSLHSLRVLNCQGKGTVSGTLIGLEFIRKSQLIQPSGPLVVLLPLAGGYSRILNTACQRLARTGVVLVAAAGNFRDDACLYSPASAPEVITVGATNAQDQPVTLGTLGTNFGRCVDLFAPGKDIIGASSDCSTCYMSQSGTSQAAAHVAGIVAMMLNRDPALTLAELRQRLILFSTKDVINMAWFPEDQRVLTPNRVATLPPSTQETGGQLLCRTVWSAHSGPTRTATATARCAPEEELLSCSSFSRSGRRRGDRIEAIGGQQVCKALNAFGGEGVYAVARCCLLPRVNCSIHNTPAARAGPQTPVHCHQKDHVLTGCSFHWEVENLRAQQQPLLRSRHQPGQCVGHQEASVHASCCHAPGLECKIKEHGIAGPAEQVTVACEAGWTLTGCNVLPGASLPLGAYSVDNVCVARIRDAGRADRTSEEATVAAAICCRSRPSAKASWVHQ

B1: engineered PCSK9 antibody of Example 1 (antibody, human IgG4 S228P, kappa, F234A L235A, V domains shown)
VH: EVQLVESGGGLVKPGGSLRLSCAASGFPFSKLGMVWVRQAPGKGLEWVSTISSGGGYTYYPDSVKGRFTISRDNAKNSLYLQMNSLRAEDTAVYYCAREGISFQGGTYTYVMDYWGQGTLVTVSS
VL: DIVMTQSPLSLPVTPGEPASISCRSSKSLLHRNGITYSYWYLQKPGQSPQLLIYQLSNLASGVPDRFSGSGSGTDFTLKISRVEAEDVGVYYCYQNLELPLTFGQGTKVEIKR
notes: the controls used are IgG4; also called test PCSK9 antibody
In the case of B1, the “koff fold difference against intact PCSK9” value in experiment [1] is at most 2 fold. Also, the binding result in [2] and in [3] was “no binding” throughout. The IC50 in experiment [4] is around 0.09 nM. Further, the dissociation constant Kd was determined as 0.17 nM in [5]; 34 nM in experiment [6]; 3 nM in experiment [7]; 1.8 nM in experiment [8]; 11 nM in experiment [9]; 25 nM in experiment [10]. The off-rate constant (koff) in experiment [5] is 0.000242 s⁻¹; in experiment [6], 0.156 s⁻¹; in experiment [7], 0.00831 s⁻¹; in experiment [8], 0.00015 s⁻¹; in experiment [9], 0.0012 s⁻¹; in [10] it was 0.0025 s⁻¹. Further, the association rate constant (kon) in experiment [5] is 1.45e+06 M⁻¹ s⁻¹; in experiment [6], 4.58e+06 M⁻¹ s⁻¹; in experiment [7], 2.75e+06 M⁻¹ s⁻¹; in experiment [8], 86700 M⁻¹ s⁻¹; in experiment [9], 120000 M⁻¹ s⁻¹; in [10], 110000 M⁻¹ s⁻¹.

Source of the values: patent US20130071405A1 (Eli Lilly, published 2013).
